For this experiment, the target named is vimentin (mouse (endogenous in MC-3T3 and in …, UniProt P20152 1-466)). Description: co-IP.
vimentin (mouse, sequence (P20152 whole entry): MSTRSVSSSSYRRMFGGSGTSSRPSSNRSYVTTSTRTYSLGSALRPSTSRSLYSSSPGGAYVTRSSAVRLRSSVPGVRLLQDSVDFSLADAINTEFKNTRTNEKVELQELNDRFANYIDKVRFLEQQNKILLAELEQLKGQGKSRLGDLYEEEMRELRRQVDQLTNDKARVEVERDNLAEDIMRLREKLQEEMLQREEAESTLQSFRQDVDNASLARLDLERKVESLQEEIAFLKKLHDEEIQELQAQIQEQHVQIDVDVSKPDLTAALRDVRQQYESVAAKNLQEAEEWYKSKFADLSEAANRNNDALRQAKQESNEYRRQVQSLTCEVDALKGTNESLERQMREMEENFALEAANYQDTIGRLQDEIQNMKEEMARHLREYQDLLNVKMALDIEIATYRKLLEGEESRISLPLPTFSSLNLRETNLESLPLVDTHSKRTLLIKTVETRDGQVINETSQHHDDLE

B1: activated PKCζ (phosphorylated on threonine 410) (enzyme, mouse (endogenous in MC-3T3), UniProt Q02956 1-592, looked up)
chain: MPSRTDPKMDRSGGRVRLKAHYGGDILITSVDAMTTFKDLCEEVRDMCGLHQQHPLTLKWVDSEGDPCTVSSQMELEEAFRLVCQGRDEVLIIHVFPSIPEQPGMPCPGEDKSIYRRGARRWRKLYRANGHLFQAKRFNRGAYCGQCSERIWGLSRQGYRCINCKLLVHKRCHVLVPLTCRRHMDSVMPSQEPPVDDKNDGVDLPSEETDGIAYISSSRKHDNIKDDSEDLKPVIDGVDGIKISQGLGLQDFDLIRVIGRGSYAKVLLVRLKKNDQIYAMKVVKKELVHDDEDIDWVQTEKHVFEQASSNPFLVGLHSCFQTTSRLFLVIEYVNGGDLMFHMQRQRKLPEEHARFYAAEICIALNFLHERGIIYRDLKLDNVLLDADGHIKLTDYGMCKEGLGPGDTTSTFCGTPNYIAPEILRGEEYGFSVDWWALGVLMFEMMAGRSPFDIITDNPDMNTEDYLFQVILEKPIRIPRFLSVKASHVLKGFLNKDPKERLGCRPQTGFSDIKSHAFFRSIDWDLLEKKQTLPPFQPQITDDYGLDNFDTQFTSEPVQLTPDDEDVIKRIDQSEFEGFEYINPLLLSAEESV
modifications: phosphothreonine at 410
Consider B1, for which the “fold increase of the association with IGF-I” value amounted to 3.5 fold.

Source of the values: paper PMC5228590 (Journal of bone and mineral research : the official journal …, 2016).
